B1: G-protein coupled receptor 15 (Pan troglodytes (Chimpanzee)), Q9BG77 (parent)
chain: MDPEETSVYLDYYYATSPNSDIRETHSHVPYTSVFLPVFYTAVFLTGVLGNLVLMGALHFKPGSRRLIDIFIINLAASDFIFLVTLPLWVDKEASLGLWRTGSFLCKGSSYMISVNMHCSVLLLTCMSVDRYLAIVWPVVSRKFRRTDCAYVVCASIWFISCLLGLPTLLSRELTLIDDKPYCAEKKATPIKLIWSLVALIFTFFVPLLSIVTCYCCIARKLCAHYQQSGKHNKKLKKSIKIIFIVVAAFLVSWLPFNTFKFLAIVSGLRQEHYLPSAILQLGMEVSGPLAFANSCVNPFIYYIFDSYIRRAIVHCLCPCLKNYDFGSSTETSDSHLTKALSTFIHAEDFARRRKRSVSL

Variants of: B1
Settings: with 1433b_human YWHAB

Row | Variant | effect of a mutation on the interaction
1 | S359A | disrupting interaction
